Measurements: patent publication US20160090640A1

Target: GII.4 norovirus
Test: capture on a column of Con A-linked resin, real-time RT-PCR; the dilution applied held about 3.39 copies/µL; no Ct value in the non-Con A-linked resin

Substance: Concanavalin A (Con A) (Sigma-Aldrich, USA) (from UniProt P02866 30-281)
- virus concentrated through the Con A-linked resin column: 2.16 copies/µL
